Test results: patent publication US20240309087A1 (SHANGHAI JUNSHI BIOSCIENCES, published 2024)
Residue numbers refer to the chain shown, from its start.

T1: human CD112R on Jurkat CD112R effector cells (human, UniProt Q6DKI7 1-326)
T1 sequence (looked up): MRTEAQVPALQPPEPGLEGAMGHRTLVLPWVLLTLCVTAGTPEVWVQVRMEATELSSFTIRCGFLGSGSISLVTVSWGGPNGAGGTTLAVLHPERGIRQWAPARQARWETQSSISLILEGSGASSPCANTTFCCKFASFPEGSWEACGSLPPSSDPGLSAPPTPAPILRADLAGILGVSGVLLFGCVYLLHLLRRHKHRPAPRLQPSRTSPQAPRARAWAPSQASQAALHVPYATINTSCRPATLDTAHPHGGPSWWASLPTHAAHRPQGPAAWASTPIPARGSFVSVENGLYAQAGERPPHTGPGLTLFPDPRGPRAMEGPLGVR

T2: hCD112R mFC recombinant protein (human; murine, UniProt Q6DKI7 41-160)
T2 construct: range 41-160; expressed in 293E cells; also called hCD112R ECD mFC; hCD112R-ECD-mFC; not shown: murine IgG2a Fc domain (MX2-mFc vector)
T2 sequence (looked up): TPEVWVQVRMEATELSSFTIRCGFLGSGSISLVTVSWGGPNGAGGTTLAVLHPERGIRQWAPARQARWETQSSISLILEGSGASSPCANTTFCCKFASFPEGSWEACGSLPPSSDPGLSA

B1: Hu32 (antibody, IgG4, V domains shown)
VH: EVQLVESGGGLVQPGGSLRLSCAASGFTFSSYHMSWVRQAPGKGLELVAAISRDGDSTYYPDTVKGRFTISRDDAENSLYLQMNSLRAEDTAVYYCSRHEDYFGFAMDSWGQGTLVTVSS
VL: AIQMTQSPSSLSASVGDRVTITCKASQSVTNDVAWYQQKPGKAPKLLIYYVSNHYTGVPSRFSGSGSGTDFTLTISSLQPEDFATYFCQQAYRSPWTFGQGTKLEIK
notes: humanized IgG4
B2: Hu1 (antibody, IgG4, V domains shown)
VH: EVQLVESGGGLVQPGGSLRLSCAASGFTFSSYHMSWVRQAPGKGLELVAAINSNDINTYYLDTVKGRFTISRDIAKNSLYLQMNSLRAEDTAVYYCARHEDYYGFAMDYWGQGTLVTVSS
VL: DIVMTQSPDSLAVSLGERATINCKASQSVTNDVAWYQQKPGQPPKLLIYYVSNHYTGVPDRFSGSGSGTDFTLTISSLQAEDVAVYFCQQAYRSPWTFGQGTKLEIK
notes: humanized IgG4; also called Hu-01
B3: Hu50 (antibody, IgG4, V domains shown)
VH: B2 VH with Q13K, A49S, D55G, I74N
VL: B1 VL
notes: humanized IgG4
B4: Hu31 (antibody, IgG4, V domains shown)
VH: B1 VH
VL: B2 VL
notes: humanized IgG4
B5: Hu25 (antibody, IgG4, V domains shown)
VH: B1 VH with D74N, E76K
VL: B2 VL
notes: humanized IgG4
B6: Hu7 (antibody, IgG4, V domains shown)
VH: B2 VH with Q13K, A49S
VL: B2 VL
notes: humanized IgG4; also called Hu-07
B7: Hu55 (antibody, IgG4, V domains shown)
VH: B2 VH with V37I, D55G, I74N
VL: B2 VL
notes: humanized IgG4
B8: Hu4 (antibody, IgG4, V domains shown)
VH: B2 VH
VL: B2 VL with T30S, N53H, H54R, Y55F, Q89H
notes: humanized IgG4; also called Hu-04
B9: Hu58 (antibody, IgG4, V domains shown)
VH: B2 VH with V37I, D55G, I74N
VL: B2 VL with T30S, N53H, H54R, Y55F, Q89H
notes: humanized IgG4
B10: Hu19 (antibody, IgG4, V domains shown)
VH: B1 VH with Q13K, A49S
VL: B2 VL
notes: humanized IgG4
B11: Hu13 (antibody, IgG4, V domains shown)
VH: B1 VH with Q13K, A49S, D74N, E76K
VL: B2 VL
notes: humanized IgG4
B12: Hu49 (antibody, IgG4, V domains shown)
VH: B2 VH with Q13K, A49S, D55G, I74N
VL: B2 VL
notes: humanized IgG4
B13: Hu2 (antibody, IgG4, V domains shown)
VH: B2 VH
VL: B1 VL
notes: humanized IgG4; also called Hu-02
B14: Hu10 (antibody, IgG4, V domains shown)
VH: B2 VH with Q13K, A49S
VL: B2 VL with T30S, N53H, H54R, Y55F, Q89H
notes: humanized IgG4

How the values were obtained:
[1] = molecular target: T1, human CD112R on Jurkat CD112R effector …; assay: cell-based or functional assay
[2] = molecular target: T2, hCD112R mFC recombinant protein; assay: ELISA, coated hCD112R-ECD-mFC
Procedure: (§1) A plate was coated with a hCD112R-ECD-mFC protein (1.5 μg/mL) at a fixed concentration, and the humanized anti-CD112R antibodies diluted in a gradient (initial concentration: 1 μg/mL, 2.5-fold gradient dilution, 12 concentration gradients in total) were added to bind to the antigen. HRP-conjugated goat anti-human antibody IgG (Fc specific) (Sigma, A0170) was subjected to a 5000-fold dilution and used as a detection antibody for detection. The color development was performed with 0.1 mg/mL TMB, and finally stopped with 2 M hydrochloric acid. The plate was read at 420 nm/620 nm. EC₅₀ was obtained by fitting with a four-parameter logistic regression (4PL) model. The […] were COM701 (anti-CD112R antibody, Compugen, obtained by expression and purification according to the sequences in US20180280506A1) and the anti-KLH hu-IgG4 antibody.

[3] = molecular target: T2, hCD112R mFC recombinant protein; assay: FACS competition, hCD112R mFc on CHO CD112 cells
Procedure: (§2) Cells CHO CD112 overexpressing human CD112 were co-incubated with a hCD112R mFc protein solution (5 μg/mL) prepared in a staining buffer (PBS+1% FBS), and the humanized anti-CD112R antibodies or the control antibodies at different concentrations (initial concentration: 100 μg/mL, 3-fold dilution, 10 concentration gradients) at 4° C. for 30 min. Unbound antibodies were then washed with a staining buffer and the cells were incubated with 1% (v/v) goat anti-mouse IgG Fc fluorescent secondary antibodies (Jackson ImmunoResearch) prepared in a staining buffer at 4° C. for 30 min in the dark. Finally, the cells were collected by using a flow cytometer (BD Canto II), and the fluorescent antibodies bound to the cell surface were detected. Raw data were analyzed by using FlowJo to obtain MFI values, and a four-parameter curve fitting was performed by using GraphPad Prism software to obtain IC₅₀ values. The positive control and the negative control were COM701 (anti-CD112R antibody, Compugen, obtained by expression and purification according to the sequences in US20180280506A1) and the anti-KLH hu-IgG4 antibody, respectively.

[4] = molecular target: T2, hCD112R mFC recombinant protein; assay: ELISA, coated hCD112R-ECD-mFC; EC50 COM701/EC50 antibody
Procedure: as §1

[5] = molecular target: T2, hCD112R mFC recombinant protein; assay: FACS competition, hCD112R mFc on CHO CD112 cells; IC50 COM701/IC50 antibody
Procedure: as §2

Row | Binder | EC50, CD112R/CD112 reporter [1] | Relative activity (%), EC50 COM701/EC50 antibody [1] | EC50 [2] | IC50 [3] | Relative activity (%) [4] | Relative activity (%) [5]
1 | B1 | 0.0471 µg/mL | 119% | 0.00404 µg/mL | 2.82 µg/mL | 150% | 127%
2 | B2 | 0.0688 µg/mL | 92% | 0.00276 µg/mL | 4.31 µg/mL | 154% | 92.2%
3 | B3 | 0.0268 µg/mL | 245% | 0.00459 µg/mL | 2.67 µg/mL | 190% | 90%
4 | B4 | 0.0507 µg/mL | 110% | 0.00339 µg/mL | 2.52 µg/mL | 179% | 142%
5 | B5 | 0.0412 µg/mL | 157% | 0.00403 µg/mL | 3.7 µg/mL | 165% | 97%
6 | B6 | 0.144 µg/mL | 48.6% | 0.00432 µg/mL | 5.06 µg/mL | 91% | 78.6%
7 | B7 | 0.0223 µg/mL | 302% | 0.00553 µg/mL | 2.81 µg/mL | 166% | 85.7%
8 | B8 | 0.0385 µg/mL | 186% | 0.00295 µg/mL | 4.22 µg/mL | 144% | 94.2%
9 | B9 | 0.0216 µg/mL | 277% | 0.00488 µg/mL | 3.25 µg/mL | 172% | 74%
10 | B10 | 0.0404 µg/mL | 127% | 0.00411 µg/mL | 2.48 µg/mL | 139% | 144%
11 | B11 | 0.0252 µg/mL | 192% | 0.00433 µg/mL | 2.19 µg/mL | 132% | 164%
12 | B12 | 0.0307 µg/mL | 214% | 0.00495 µg/mL | 2.47 µg/mL | 176% | 97.5%
13 | B13 | 0.0577 µg/mL | 110% | 0.00303 µg/mL | 4.28 µg/mL | 141% | 92.9%
14 | B14 | 0.0377 µg/mL | 199% | 0.00257 µg/mL | 4.17 µg/mL | 153% | 95.5%
